Experimental findings from publication PMC8524320 are described below.

No end group written: not given here. *: point of attachment. TAMRA = 5-carboxytetramethylrhodamine, CN(C)c1ccc2c(-c3ccc(C(=O)*)cc3C(=O)[O-])c3ccc(N(C)C)cc3[o+]c2c1

Experiment [1] addresses HLA-A*68:02^S88R on the surface of HeLaM-HLA-ABC^KO cells (human). In words: flow cytometry on cells; competition: surface MHC-I pre-loaded with 10 nM fluorescent peptide in the presence of TAPBPR (100 nM for HLA-A*68:02 WT, 10 nM for N86Q and S88R), washed, then 0, 100 nM or 1000 nM recombinant TAPBPR for 30 min; loss of bound peptide against no TAPBPR. Background: In flow cytometry, cells or beads pass a laser one at a time.

Experiment [2] deals with HLA-A*68:02^WT on the surface of HeLaM-HLA-ABC^KO cells (human). The description is as above.
The target in experiment [3] is HLA-A*68:02^N86Q on the surface of HeLaM-HLA-ABC^KO cells (human). The description is as above.
For experiment [4], the target named is HLA-A*68:02^S88R on the surface of HeLaM-HLA-ABC^KO cells (human). Description: flow cytometry on cells; competition: cells treated with 1 μM soluble TAPBPR for 30 min at 37 °C, washed, then 0, 10 nM or 100 nM high-affinity peptide for 15 min (methods: 30 min); loss of bound TAPBPR (PeTe-4) against no peptide.
In experiment [5] the target is HLA-A*68:02^WT on the surface of HeLaM-HLA-ABC^KO cells (human). Described as above.
For experiment [6], the target named is HLA-A*68:02^N86Q on the surface of HeLaM-HLA-ABC^KO cells (human). Described as above.

Consider “recombinant soluble TAPBPR^WT (lumenal domains, C-terminal His6) (from UniProt Q9BX59 19-405) (domain or fragment)”, for which, in experiment [1], the % loss of pre-loaded YVVPFVAK*V in the presence of TAPBPR (up to) was 50%, the % of pre-loaded ETVSK*QSNV dissociated by 100 nM TAPBPR came to 75% and the % of pre-loaded ETVSK*QSNV dissociated by 1 μM TAPBPR is greater than 90%. Moreover, the % of pre-loaded ETVSK*QSNV dissociated by 1 μM TAPBPR in experiment [2] came to 30%. Further, in experiment [3], the % loss of pre-loaded YVVPFVAK*V in the presence of TAPBPR (up to) was 30%, the % of pre-loaded ETVSK*QSNV dissociated by 100 nM TAPBPR is 50% and the % of pre-loaded ETVSK*QSNV dissociated by 1 μM TAPBPR was 85%.

B1: YVVPFVAK*V (TAMRA-labelled peptide specific for HLA-A*68:02) (peptide)
peptide: YVVPFVAK(TAMRA)V
B1: the % of bound TAPBPR displaced by the peptide in experiment [4] turned out to be 83%; in experiment [5], 92%; in experiment [6], 86%.

B2: ETVSK*QSNV (TAMRA-labelled peptide specific for HLA-A*68:02) (peptide)
peptide: ETVSK(TAMRA)QSNV
B2: the % of bound TAPBPR dissociated by the peptide in experiment [4] turned out to be 60%; in experiment [5], 85%; in experiment [6], 70%.
